Measurements reported in US20120171123A1, “USES AND COMPOSITIONS FOR TREATMENT OF RHEUMATOID ARTHRITIS” (priority 2006, published 2012).
Where two headings read alike, the source gives them in different places. Marks after values point to notes of the source that are not given here.

Tests used:
patients with active RA = assay: Study A in France: AIMS2-SF quality of life; format: in vivo, human; settings: for AIMS2-SF Work component score: working patients only
Source text: Efficacy of a treatment for rheumatoid arthritis can be determined by comparing AIMS2-SF scores given by subjects having rheumatoid arthritis. The AIMS2-SF is a shorter version of the AIMS2 (i.e., available in 2-page format) and has psychometric properties similar to those of the AIMS2 (see Guillemin et al. (1997) Arthritis Rheum. 40(7):1267).
Unsatisfactory response or intolerance to at least one prior DMARD was required for enrollment in Study A. A 12-week study period was followed by an optional extension phase, with an efficacy assessment performed at Weeks 2, 6, 12, 20, and every eight weeks thereafter. Patients discontinued the study when they stopped receiving adalimumab or when […].
The HAQ and the Arthritis Impact Measurement Scale Short Form (AIMS2-SF) are both extensively validated health-related quality-of-life outcome measures in RA (Guillemin et al. Arth Rheum 1997; 40(7):1267-1274). Both measures have been proven useful in cohort studies and clinical trials (Guillemin et al). The HAQ and the AIMS2-SF are effective in detecting both long-term and short-term health status changes (Guillemin et al). In France, Study A patients completed the French AIMS2-SF, a tool that measures disease impact on physical function and overall quality-of-life in five components. Study A began in France began in December 2002. Completion of the AIMS2-SF at Study Entry Visit 1, Week 12, and Week 28 (if patient participated in the continuation period) was a component added in March 2003 as a France-specific amendment to the study protocol. Because AIMS2-SF was introduced later into the study, the number of French patients answering the AIMS2-SF is smaller than the overall French Study A population
A total of 266 patients out of 1,002 Study A patients in France completed the AIMS2-SF. AIMS2-SF responders recorded a significant improvement in quality-of-life.

[1] = tested on: patients with early vs. long-standing RA; assay: Safety of adalimumab in global clinical trials, early vs long-standing RA (serious adverse event rates, demyelinating disease, lymphoma)
Source text: Study J was a 2-year randomized controlled trial in patients with early RA (disease duration<3 years). Participants in these clinical trials and in other phase Mb studies, were routinely evaluated for safety. Reports of serious adverse events (SAE) were tabulated using MedDRA coding by events per 100-patient-years (E/100PY). SAE rates were compared with respect to disease duration between patients with early (<3 yrs) and long-standing RA.

[2] = tested on: patients with moderate to severe rheumatoid arthritis; assay: Study C (Canadian open-label, adalimumab 40 mg sc eow add-on): TJC/SJC; format: in vivo, human
Description: The Canadian Adalimumab Clinical Trial (Study C) was an open-label, multi-center, Phase IIIb study conducted in Canada. […] Efficacy and safety were assessed at baseline, 4, 8, and 12 weeks. Efficacy assessments included tender joint count (TJC 0-28), swollen joint count (SJC 0-28), Disease Activity Score 28 (DAS28), Health Assessment Questionnaire (HAQ), and EULAR response. This was a preliminary analysis of 236 patients. The sample size for each outcome variable is based on the data available at the time of the analysis. The data from this preliminary analysis were compared with the Week 12 data from Study A (N=2008).

[3] = tested on: patients with long-standing RA; assay: Study I: serious adverse events and withdrawals; settings: 262 patients
[4] = tested on: patients with long-standing RA
[5] = Baseline to Week 12, mean of individual patient differences
[6] = All Trials adalimumab (4870 PY), data for registration
[7] = Combined (long-standing + early RA)
[8] = Early RA, Study J (N=542; 917 PY)
[9] = Early RA, Study J, N (Exposure) 542 (917)
[10] = Long-standing RA, 31-Aug.-2004 (N=10,050; 12,066 PY)
[11] = Long-standing RA, 31-Aug.-2004, N (Exposure) 10,050 (12,066)
[12] = Study C, 12 weeks, preliminary analysis

adalimumab: human anti-TNF mAb (HUMIRA, Abbott Laboratories), described in U.S. Pat. No. 6,090,382 as D2E7
AIMS2-SF Afect component score (patients with active RA; Baseline): 4.7 | AIMS2-SF Physical component score (patients with active RA; Baseline): 3.9 | AIMS2-SF Social component score (patients with active RA; Baseline): 5.3 | AIMS2-SF Symptom component score (patients with active RA; Baseline): 6.7 | AIMS2-SF Physical component, % Change (patients with active RA; [5]): −25.0^§ % | AIMS2-SF Social component, % Change (patients with active RA; [5]): 1.6% | AIMS2-SF Social component, Mean Change (patients with active RA; [5]): −0.1 | AIMS2-SF Symptom component, % Change (patients with active RA; [5]): −43.4^§ % | AIMS2-SF Symptom component, Mean Change (patients with active RA; [5]): −3.2^§ | AIMS2-SF Work component score (patients with active RA; Baseline): 4.2 | AIMS2-SF Work component score (patients with active RA; Week 12): 3.3 | AIMS2-SF Afect component score (patients with active RA; week 12): 3.6 | AIMS2-SF Physical component score (patients with active RA; week 12): 2.9 | AIMS2-SF Social component score (patients with active RA; week 12): 5.3 | AIMS2-SF Symptom component score (patients with active RA; week 12): 3.5 | Malignancies [1, 6]: 0.006 N/PY | Pneumonia [1, 6]: 0.008 N/PY | TB [1, 6]: 0.003 N/PY | Total lymphomas, Expected [1, 7]: 5.16 cases | Total lymphomas, Observed [1, 7]: 15 cases | Total lymphomas, SIR [1, 7]: 2.91 | Total lymphomas, Expected ([1]; Early RA): 0.37 cases | Total lymphomas, Observed ([1]; Early RA): 0 cases | Total lymphomas, SIR ([1]; Early RA): 0 | cases of lymphoma ([1]; Early RA): No cases | Congestive Heart Failure rate [1, 8]: 0.11 E/100PY | Demyelinating Diseases rate [1, 8]: 0.00 E/100PY | Lymphoma rate [1, 8]: 0.00 E/100PY | Pancytopenia rate [1, 8]: 0.00 E/100PY | Pneumonia (serious) rate [1, 8]: 0.55 E/100PY | SLE/Lupus-like Syndrome rate [1, 8]: 0.00 E/100PY | Septic Arthritis rate [1, 8]: 0.22 E/100PY | Serious Infections rate [1, 8]: 1.85 E/100PY | Tuberculosis rate [1, 8]: 0.11 E/100PY | Urinary Tract Infections (serious) rate [1, 8]: 0.11 E/100PY | Cases of Guillain-Barre syndrome [1, 9]: 0 cases | Cases of Multiple sclerosis [1, 9]: 0 cases | Cases of Non-specific demyelination [1, 9]: 0 cases | Hodgkin's, Expected ([1]; Long-standing RA): 0.36 cases | Hodgkin's, Observed ([1]; Long-standing RA): 1 cases | Hodgkin's, SIR ([1]; Long-standing RA): 2.78 | NHL, Expected ([1]; Long-standing RA): 4.32 cases | NHL, Observed ([1]; Long-standing RA): 14 cases | NHL, SIR ([1]; Long-standing RA): 3.24 | Total lymphomas, Expected ([1]; Long-standing RA): 4.68 cases | Total lymphomas, Observed ([1]; Long-standing RA): 15 cases | Total lymphomas, SIR ([1]; Long-standing RA): 3.21 | Congestive Heart Failure rate [1, 10]: 0.26 E/100PY | Demyelinating Diseases rate [1, 10]: 0.07 E/100PY | Lymphoma rate [1, 10]: 0.11 E/100PY | Pancytopenia rate [1, 10]: 0.02 E/100PY | Pneumonia (serious) rate [1, 10]: 0.87 E/100PY | SLE/Lupus-like Syndrome rate [1, 10]: 0.06 E/100PY | Septic Arthritis rate [1, 10]: 0.46 E/100PY | Serious Infections rate [1, 10]: 4.79 E/100PY | Tuberculosis rate [1, 10]: 0.24 E/100PY | Urinary Tract Infections (serious) rate [1, 10]: 0.38 E/100PY | Cases of Guillain-Barre syndrome [1, 11]: 2 cases | Cases of Multiple sclerosis [1, 11]: 4 cases | Cases of Non-specific demyelination [1, 11]: 2 cases | lymphoma combined SIR ([1]; all RA patients in adalimumab clinical trials, 95% CI 1.63-4.80): 2.91 | cases of demyelinating diseases ([1]; early RA (Study J)): No cases | cases of demyelinating diseases ([1]; long-standing RA, through Aug. 31, 2004): Eight | cases of lymphoma ([1]; long-standing RA, through August 2004): Fifteen | SJC (0-28), change from baseline, median [2, 12]: −7 (123) | TJC (0-28), change from baseline, median [2, 12]: −10 (123) | mean SJC ([2]; week 12 (baseline 14)): 7.4 | mean TJC ([2]; week 12 (baseline 17)): 8.1 | withdrawals for lack of efficacy [3]: 8% | Demyelinating disease ([4]; all exposure): 0.04 E/100-PY | Lymphoma ([4]; all exposure): 0.16 E/100-PY | Pancytopenia ([4]; all exposure): 0.00 E/100-PY | Pneumonia ([4]; all exposure): 0.6 E/100-PY | Septic arthritis ([4]; all exposure): 0.12 E/100-PY | Tuberculosis ([4]; all exposure): 0.04 E/100-PY | Urinary tract infections ([4]; all exposure): 0.28 E/100-PY | Serious infections ([4]; all exposure, 2485 patient-years): 2.62 E/100-PY | Demyelinating disease ([4]; pivotal trials): 0.13 E/100-PY | Lymphoma ([4]; pivotal trials): 0.25 E/100-PY | Pancytopenia ([4]; pivotal trials): 0.25 E/100-PY | Pneumonia ([4]; pivotal trials): 1.13 E/100-PY | Septic arthritis ([4]; pivotal trials): 0.38 E/100-PY | Tuberculosis ([4]; pivotal trials): 0.13 E/100-PY | Urinary tract infections ([4]; pivotal trials): 0.5 E/100-PY | Serious infections ([4]; pivotal trials, 793 patient-years): 4.16 E/100-PY
